This note sets out measurements from paper PMC5814901.

Assay [1] deals with UvrAB complex formed beforehand on DNA tightropes (Bacillus caldotenax) (UniProt P56981). As to the kind of experiment: single-molecule fluorescence colocalisation on DNA tightropes (two colours); UvrAB complexes first formed on undamaged DNA tightropes with the Qdot on UvrB (unlabelled, non-biotinylated UvrA) or on UvrA; streptavidin-Qdot-labelled biotin-UvrC of another colour then added; dual-coloured complexes counted; room temperature; ABC buffer.

The target is the same in assay [2]. As to the kind of experiment: single-molecule fluorescence colocalisation on DNA tightropes (three colours); UvrA, UvrB and UvrC (1:1:0.5 nM) labelled with different Qdots (565, 605, 655 nm), incubated together, then added to undamaged λ-DNA tightropes; room temperature; ABC buffer (50 mM Tris-HCl pH 7.5, 50 mM KCl, 1 mM ATP, 10 mM MgCl2, 10 mM DTT).
For assay [3], the target named is UvrA (Bacillus caldotenax) (Bacillus caldotenax). The description is as above.
Assay [4] concerns the target UvrC (Bacillus caldotenax) (Bacillus caldotenax). The assay is described as above.

The molecule “UvrC (Bacillus caldotenax) (natural protein)” showed an occurrence of the dual-colour complex among DNA-bound Qdots in assay [1] of 16.6%. For the same molecule, in assay [2], the occurrence of the triple-coloured complex among DNA-bound Qdots is 1.6%.

B1: UvrB (Bacillus caldotenax) (natural protein)
chain: MVEGRFQLVAPYEPQGDQPQAIAKLVDGLRRGVKHQTLLGATGTGKTFTISNVIAQVNKPTLVIAHNKTLAGQLYSELKEFFPHNAVEYFVSYYDYYQPEAYVPQTDTYIEKDAKINDEIDKLRHSATSALFERRDVIIVASVSCIYGLGSPEEYRELVVSLRVGMEIERNALLRRLVDIQYDRNDIDFRGTFRVRGDVVEIFPASRDEHCIRVEFFGDEIERIREVDALTGKVLGEREHVAIFPASHFVTREEKMRLAIQNIEQELEERLAELRAQGKLLEAQRLEQRTRYDLEMMREMGFCSGIENYSRHLALRPPGSTPYTLLDYFPDDFLIIVDESHVTLPQLRGMYNGDRARKQVLVDHGFRLPSALDNRPLTFEEFEQKINQIIYVSATPGPYELEHSPGVVEQIIRPTGLLDPTIDVRPTKGQIDDLIGEIRERVERNERTLVTTLTKKMAEDLTDYLKEAGIKVAYLHSEIKTLERIEIIRDLRLGKYDVLVGINLLREGLDIPEVSLVAILDADKEGFLRSERSLIQTIGRAARNANGHVIMYADTITKSMEIAIQETKRRRAIQEEYNRKHGIVPRTVKKEIRDVIRATYAAEETEMYEAKPAAAMTKQEREELIRTLEAEMKEAAKALDFERAAQLRDIIFELKAEG
B1: the occurrence of the complex among DNA-bound Qdots in assay [3] was determined as 6.7%; in assay [4], 1.6%.
